Measured values reported in the DeepSol protein solubility set.

Assay: soluble on expression in E. coli; label from the status in PepcDB or PDB records

Sequence	soluble on expression in E. coli
MGSDKIHHHHHHLSVRATISDSKSDFHKEFPYVIPAIYRKLADELLVELHLLSHQKNFKKDSIFSTGLKEVFSKFTSGYKPSEHATKLFDAICNCNGFNPTEINNSSEQLVSNAKSFTKEDLNSFLSKTNNDNKGYDYYSRINAIGIYKLVSEMPLFKEVKEEDLNKEINDISKSLGYQYSRVEKDISMYKSNIEKMKQALEIIALNLKTK	not soluble
MGSDKIHHHHHHLTQPITDWYKSGTGSTPVLKFQFATEKLLRPSGGGPSRRGTPIREIPMNLHKLLSDREQDGRPIRVGLIGAGRYGTMYLAQANNIPGIHVVAIADINVKRAEGAFELVGWPKNQIAPDIATALRDRSTTIVANADELFDVDIDVIVEATGNPIVGVKHALRAIETKKHIIMVTVEADALAGPALARRAEAAGVVYSMAYGDQPALIMELVDWARTSGFDVVCAGKGAKFLEHYHEMNPDNVWENWEFSKELTDSGQLNPNMHTSFRDGTKASIEMAAVANGAGLVPSDTGLTFTPGDVEEIATICRPADAGGVLAHEGTVDVMSSVKRDGTWIPHNTQEGVFVVVKATNAYVSGCFTEYPWHPDPTGQYAALYRPYHYVGLELNMSIANAALRGISTGSPIGFFGDVVATAKKNLKAGEFLDGEGGYTVWGQLVSAKHSVATGALPVALAHHVELRNDVAKGGIVGWDDVIMDDSLSQALEVRRETEALVAEFALNA	not soluble
MGSDKIHHHHHHMADAATLKARVAQIFREAWTTREGQKVPDPGDVKLGNDAVEFEKATILYADLSGSTDLVNAHGWTFAAEIYKTYLHCAATIIRDEGGSIVSYDGDRVMGVFIGDPQTTPAARAGLKINYAVQEIINPALKAQYPSNTFVVRQVVGIDTSPIRAARTGVRGDNDLVWVGRAANYAAKLTELKLDERTWITKEAYDRLTDDAKFGGANRTLMWKFYRWSQMNDHPIYGSTWRWSL	not soluble
MGSDKIHHHHHHMADAPIDIFQSILSRKSIRAFTDQPVTQETIREILKLAARAPSGTNLQPWQVIVLTGKILQKVGQELSQLVLSGIKGEREYHYYPRQWREPYLSRRRKVGLDLYKSLGIQKGDQEKMLHQKAKNFLFYGAPVGLLFTIDHDMEMGSWLDLGMFMQTIMLAARGFGLDTCAQAAFADYHKQIRSLLSVPSDRHIICGMALGYRDMNAPENNFETEREPIDNFVHFIKSYP	not soluble
MGSDKIHHHHHHMAENNTPQETEQDQEARFREEFEVGGKDRQLSEEEQLEQLGSYIDAHYPVPDFTPPWAGGAGDPDPADRYIAHLPDRTTHTAMIMLGSGLDHSMPGVAFIGGVSVDDVPEVGGAIFHPSNPTGRWAVSFHSGGWWRGSGDALEFQWRPEVAAAAELSGTTILDLDYPLAPGHNLHDMNEVVGKAVGYARHHNPVSITGWGYSSGAALAAINASLFDALVLTFPDLGSVEKLPAEIRGDAVVPAAAAWPTTFVQIAAQDEIAERPGELGDATVKEYVSRHRISTPKVAREKITDVAEFLKTVC	not soluble
MGSDKIHHHHHHMAESKTKRLLYFMSELEKGNQINKEEYIAKFNISDRTMKEDVSELKTNLKELRPNMQIKFSRKHACYFASYEQGYGNLKYNQAVILSKILLESRALRKEEVAEIINIFVERAVDDKERTRIKKLTQFELNSYQELKFYQKSNKSILPTISAIFDAIVDQRPLAFSYTKPSSKVEEYIVLPISVIFDNHYFYCISYKLDNCFQSRYELQELRYFRVDRFKTIHKSISNSAFALTEEEQERLITDEQVRYQTFSMLSDQKWVRIQFRYTGQFRDVLEADIPKLKMINELEEGIIYEIETLSLLGFQKYIQRFDGDFVFLNIKSIKK	not soluble
MGSDKIHHHHHHMAEWAGGQGTQEQAVDKGPVTTDRPRPDRISPMNTARRLLRYLGHQRLPHVVVQIGCEILGAQRGALYLLDQNQEVTLIAQYPDDKDVQVPDDLDEARLSWHTLHDFLPQLVDCAHDHEARFHYCSGGDCWLTLSIPLQWEGQNIAVVQLSYKPDVTIDQTSMLGLVYEYAELAALTLVQHWRCIHPAHSSGTQAVPPSSLTNDYSFSSGVSLALAVSEAERARIARDLHDGARSAILGVQLHLEALRLACMQGDSLAIQDHLARGRAALDAIEQELSHIVRDLYPPQVGEADFPTVLVNLSERWSAATRIPVEYAFAPNIPVLETAQVIALYRIVQEALANCNRHAQASRVTISLACADDTLLLTVADNGRGGANLRGGGIGLLSMAQRAHAIGASFHIDSPPDQGTRIEVKLPLRRREPDVHVCSGDCHEGADE	not soluble
MGSDKIHHHHHHMAFTPFPPRQPTASARLPLTLMTLDDWALATITGADSEKYMQGQVTADVSQMAEDQHLLAAHCDAKGKMWSNLRLFRDGDGFAWIERRSVREPQLTELKKYAVFSKVTIAPDDERVLLGVAGFQARAALANLFSELPSKEKQVVKEGATTLLWFEHPAERFLIVTDEATANMLTDKLRGEAELNNSQQWLALNIEAGFPVIDAANSGQFIPQATNLQALGGISFKKGCYTGQEMVARAKFRGANKRALWLLAGSASRLPEAGEDLELKMGENWRRTGTVLAAVKLEDGQVVVQVVMNNDMEPDSIFRVRDDANTLHIEPLPYSLEE	soluble
MGSDKIHHHHHHMAHLSYSPPRNFDALYRQRVFQSHQAVRMHDAAARELADHSLTWRSGNVDAALYKARARRLTLFSFRYGAEVEIAPRPSEEFIVVHHSIRGAAELSVDGQHMVLPQGRTGWMAPRRNWRMRWEAGCEQLILKIPRDMIEAGGIAPMAPLATLPAGLDTQWLLLVQVLLGASSAPTCAGEPAAWVEHIEQGLASLLRAASSCSLPRESSDRNFVARDPIARLQAMEDYMRERLGAPIGLADLSGAAGVSARVLQQTCQRHRQMSPMELLRDMRLDAVHAWLSEHPSANITETALFYGFGHLGRFAAYYRQRFGESPHQTAQRRCCALS	not soluble
MGSDKIHHHHHHMAIEITTAEKRLLQRVSIPPRPETLLTVSREAKKSEPDVNVIAESISADMSIAAAVLQVVNSAAYRRAREVDSIQQAVMTLGFRRVFPIVRAVALKSALTSDYDLSEFWRYNEWVAGACVMIAEAIGRPELRDHAYMLGLFQSSGIPVMLAEFDDYADLLNAAESTPWQQVQAKELELFQTSHTTIGALLAQQWKLPKIVVEVIYYLFEDSSIFNHSSELDNLTLDLLGILKISRYAIDLRTRSLAGEEEWQYVQDGVLEHFQIDEFKVDEMLQIVHEELFDTEA	not soluble
MGSDKIHHHHHHMAIIKASTAASVAELTTDIDQQLPQLKAKPFSHELLTTSILTMLGTAAFVGIHHRYRKQHLADARVQDYVRGIYSQMNALQSASHSRSMLRHFRYSCQQAASTWQQAYRLPMNDKQSNSSGLATNNFSAMHTTTMLARPVCWVSGVASMPKDISLINEDNENDFGVVGIDADREVVWQTTMPERVHDIVVQPVFRYEDNTVSNHLNHRQSRDVVVMGRRPSEKFWVLDTATGQVRFAINAATNRHFYGHACYSLDGSKLYVTENDTLSLDGKIGAYAVDKGYQKIAEFDSYGIGPHELIMHPDGETLIIANGGIKTEQASREELNLDTMHPSLVYLNRHDGSLLEQITPEHNQMSVRHLAMHDDGTVMIGIQFQGEKHINVPLVLTHKRGDIKLTPLTMPNNQWQRFHQYIASVAVDSKCNLLCVTTPIGGCAAIFDLTTRALINSVSLPDCAGASIYSRKTGSGKGSVDAEQKSGFIVSDGQGQLTRLSVNDLTILDSELNSDAIAKNNTIGTDIKCHMMSFDNHLQAL	not soluble
MGSDKIHHHHHHMAIVNRIALDLAKDFIQVLALDENEQEVFNKKLRSNKVLAKLATLSRTDDCEVAVESCGMSHYWRRECEKLGYKTVALPPRFVKAYLQGEKNDANDARAIAEAASRPNRQTVRLKSIEQQDLALMVNQREGFVQTRTQFSNRLRGQLAEYGILLPKRVGTILQRVPEVLEDDSNALTLQSRDLINRLYQMLRAVDEEVKALDKHLATQAERNEDSQRLMTLPGIGPITATSLLALIGDVSEFKRGRNLSEYLGLVPRQNSSGGKDRLGGITKKGNTKLRTLLVHGARSALRVAQQRHDRLSLWAQDVAKRRGNNVAAVALANKHARIIWAMLKNKEDYRMTAA	not soluble
